B1: TR4: human testicular orphan nuclear receptor 4, SEQ ID NO:16; expressed from plasmid or in vitro translated (protein)
chain: MTSPSPRIQIISTDSAVASPQRIQGSEPASGPLSVFTSLNKEKIVTDQQTGQKIQIVTAVDASGSPKQQFILTSPDGAGTGKVILASPETSSAKQLIFTTSDNLVPGRIQIVTDSASVERLLGKTDVQRPQVVEYCVVCGDKASGRHYGAVSCEGCKGFFKRSVRKNLTYSCRSSQDCIINKHHRNRCQFCRLKKCLEMGMKMESVQSERKPFDVQREKPSNCAASTEKIYIRKDLRSPLIATPTFVADKDGARQTGLLDPGMLVNIQQPLIREDGTVLLATDSKAETSQGALGTLANVVTSLANLSESLNNGDTSEIQPEDQSASEITRAFDTLAKALNTTDSSSSPSLADGIDTSGGGSIHVISRDQSTPIIEVEGPLLSDTHVTFKLTMPSPMPEYLNVHYICESASRLLFLSMHRARSIPAFQGLGQDCNTSLVRACWNELFTLGLAQCAQVMSLSTILAAIVNHLQNSIQEDKLSGDRIKQVMEHIWKLQEFCNSMANWDIDGYEYAYLKAIVLFSPDHPGLTSTSQIEKFQEKAQMELQDYVQKTYSEDTYRLARILVRLPALRLMSSNITEELFFTGLIGNVSIDSIIPYILKMETAEYNGQITGVSL
B2: TR2: human testicular orphan nuclear receptor 2, 603 amino acids (protein, UniProt P13056 1-603, looked up)
chain: MATIEEIAHQIIEQQMGEIVTEQQTGQKIQIVTALDHNTQGKQFILTNHDGSTPSKVILARQDSTPGKVFLTTPDAAGVNQLFFTTPDLSAQHLQLLTDNSPDQGPNKVFDLCVVCGDKASGRHYGAVTCEGCKGFFKRSIRKNLVYSCRGSKDCIINKHHRNRCQYCRLQRCIAFGMKQDSVQCERKPIEVSREKSSNCAASTEKIYIRKDLRSPLTATPTFVTDSESTRSTGLLDSGMFMNIHPSGVKTESAVLMTSDKAESCQGDLSTLANVVTSLANLGKTKDLSQNSNEMSMIESLSNDDTSLCEFQEMQTNGDVSRAFDTLAKALNPGESTACQSSVAGMEGSVHLITGDSSINYTEKEGPLLSDSHVAFRLTMPSPMPEYLNVHYIGESASRLLFLSMHWALSIPSFQALGQENSISLVKAYWNELFTLGLAQCWQVMNVATILATFVNCLHNSLQQDKMSTERRKLLMEHIFKLQEFCNSMVKLCIDGYEYAYLKAIVLFSPDHPSLENMEQIEKFQEKAYVEFQDYITKTYPDDTYRLSRLLLRLPALRLMNATITEELFFKGLIGNIRIDSVIPHILKMEPADYNSQIIGHSI
modifications: full-length
notes: human testicular orphan nuclear receptor 2, 603 amino acids

Target: T1, AR (Homo sapiens, UniProt P10275, DEL79-80/DUP473-473)
T1 sequence (P10275 with tags, fused parts or gaps DEL79-80/DUP473-473): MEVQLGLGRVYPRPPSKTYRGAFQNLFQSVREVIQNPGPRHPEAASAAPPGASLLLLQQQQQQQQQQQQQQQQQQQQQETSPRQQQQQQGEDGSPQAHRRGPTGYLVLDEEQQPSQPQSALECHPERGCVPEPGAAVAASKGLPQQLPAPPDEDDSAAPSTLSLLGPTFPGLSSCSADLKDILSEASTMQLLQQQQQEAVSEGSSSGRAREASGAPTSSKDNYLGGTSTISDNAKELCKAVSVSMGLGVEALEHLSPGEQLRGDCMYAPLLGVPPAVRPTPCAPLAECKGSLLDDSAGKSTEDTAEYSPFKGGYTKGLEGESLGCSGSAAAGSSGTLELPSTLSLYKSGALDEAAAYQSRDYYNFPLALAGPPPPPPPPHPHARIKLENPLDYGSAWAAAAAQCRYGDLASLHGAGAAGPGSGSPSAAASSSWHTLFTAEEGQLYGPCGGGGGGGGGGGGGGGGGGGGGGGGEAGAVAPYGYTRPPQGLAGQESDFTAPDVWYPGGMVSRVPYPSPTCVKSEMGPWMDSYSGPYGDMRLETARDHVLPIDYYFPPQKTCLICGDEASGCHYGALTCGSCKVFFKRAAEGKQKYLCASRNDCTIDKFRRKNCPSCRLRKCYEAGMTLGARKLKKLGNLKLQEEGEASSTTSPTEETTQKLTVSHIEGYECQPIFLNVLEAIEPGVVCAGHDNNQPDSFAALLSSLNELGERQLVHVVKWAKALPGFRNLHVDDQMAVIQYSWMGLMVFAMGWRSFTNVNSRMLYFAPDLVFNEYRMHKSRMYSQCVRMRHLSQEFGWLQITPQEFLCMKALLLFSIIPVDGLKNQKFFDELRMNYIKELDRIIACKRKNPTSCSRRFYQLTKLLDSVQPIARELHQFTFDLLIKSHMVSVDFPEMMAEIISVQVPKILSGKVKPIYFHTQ
Assay: AR-mediated transactivation reporter assay (MMTV / PSA reporters)
Assay type: cell-based
Parameters: A full-length AR(pSG5AR) was co-transfected with GAL4-TR4E; expressed in transfected cells; host or cells: COS, H1299, CHO, DU145, PC-3
Conditions: for Transactivation by the AR receptor: similar procedures, no details given; for Activity AR (effect of regulator on transcription activity): Table 5
From the text: Cells were routinely maintained in DMEM with 10% heat-inactivated fetal bovine serum. The cells were transfected using a modified calcium phosphate precipitation method, Mizokami, & Chang, J: Biol. Chem. 269,25655-25659 (1994), or SuperFect (Qiagen). To normalize the transfection efficiency, the (3-galactosidase expression ver and pRL-TK were co-transfected in CAT assay and in Dual-luciferase reporter assay system (Promega), respectively.
Like TR4, AR itself acts as a transcription factor to activate many androgen target genes. 500 ng of MMTV-Luc (FIG. 4A), or PSA-Luc (FIG. 4B), were co-transfected with 40 ng pCMV-AR (lane 2-3) with increasing amounts of pCMX-TR4 (as indicated in FIG. 4). […] After 16-18 hours incubation, cells were harvested for Dual-rnciferase reporter assay. As expected, in COS, H1299, and CHO cells, AR activated MMTV luciferase activity in a DHT-dependent manner (FIG. 4A, lanes 2 and 3), which could then be repressed by the addition of TR4 (lanes 6 to 8). […] Similar suppression effects also occurred when the MMTV-ruciferase reporter was replaced with the PSA-Iuciferase reporter, another AR target gene (FIG. 4B).
As GR and PR can also induce MMTV—luciferase reporter, Beato, M., Ce//56, 335-344 (1989), determining if TR4 could also repress OR- or PR-mediated transactivation was analyzed. Three μg of MMTV-Luc was co-transfected with 4 μg of pCMX-TR4 in the presence of 1 μg of pSG5AR, pSG5GR, or pSG5PR by modified calcium-phosphate method. […] Dual-luciferase reporter assays were performed. PRL-TK was used to normalize the transfection efficiency. […] Similar results were observed when the same experiments of AR-mediated transactivation were repeated in DU145 cells.
Human prostate cancer PC-3 cells were maintained in DMEM containing penicillin (25 units/ml), streptomycin ([…]), and 5% FCS. Human prostate cancer LNCaP cells were maintained in RPMI 1640 containing penicillin (25 units/ml), streptomycin ([…]), and 10% FCS. PC-3 cell were transfected using the calcium phosphate precipitation method as described previously [Mu X. M. et al. (1998) Endocrine 9:27-32], and LNCaP cells were transfected by using Superfect™ according to the manufacturer's procedures (Qiagen, Chatsworth, Calif.). CAT assay was performed as described previously [Lee Y. et al. (1999) Proc Natl Acad Sci USA 96:14724-14729], and is herein incorporated by reference at least for material related to the CAT assays].

Row | Molecule | Transactivation by the AR receptor | AR-activated MMTV luciferase activity (similar with PSA-luciferase) (COS, H1299 and CHO cells, 10 nM DHT, increasing pCMX-TR4) | AR-mediated MMTV-luciferase transactivation (H1299 cells (similar in DU145), 4 μg pCMX-TR4, 10 nM DHT) | Activity AR (effect of regulator on transcription activity) | MMTV-CAT and PSA-CAT activity (PC-3 cells, 10 nM DHT, 2, 4 and 7 μg pCMV-TR2) | AR-mediated transcription (MMTV-Luc) (PC-3 cells, Example 2)
1 | RXR: retinoid X receptor, another member of the steroid receptor superfamily | suppress |  |  |  |  | 
2 | B1 |  | repressed | repress | Down |  | 
3 | B2 | suppress |  |  | Down | strongly suppresses | suppress
